We go through 13 molecules from US20250066498A1 (GO THERAPEUTICS, published 2025).

Residue numbers refer to the chain shown, from its start. Read-outs that look alike come from different tables or passages of the source. Ends that are not written are not given here. GalNAc = N-acetylgalactosamine O-linked to a serine or threonine side chain Bounds are passed on as bounds.

Test [1] has as its target T1, Tn-glycosylated LAMP1 on COSMC knock-out cells (human, UniProt P11279 29-417, Truncated O-glycans (Tn, GalNAc alpha1-O-Ser/Thr), because the COSMC chaperone is knocked out).
T1 sequence (looked up): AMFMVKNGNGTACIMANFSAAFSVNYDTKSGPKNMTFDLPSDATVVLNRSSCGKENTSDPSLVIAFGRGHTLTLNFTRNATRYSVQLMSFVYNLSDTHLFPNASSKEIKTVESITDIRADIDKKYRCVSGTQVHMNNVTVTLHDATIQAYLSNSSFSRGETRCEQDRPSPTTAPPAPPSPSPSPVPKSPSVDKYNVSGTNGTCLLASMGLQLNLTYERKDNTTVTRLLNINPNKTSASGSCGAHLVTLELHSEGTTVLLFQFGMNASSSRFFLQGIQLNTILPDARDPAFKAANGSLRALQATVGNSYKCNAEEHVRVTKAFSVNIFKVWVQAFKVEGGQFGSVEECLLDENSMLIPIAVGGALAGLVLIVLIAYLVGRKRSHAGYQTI
In words: cell-based or functional assay.

In test [2] the target is T2, podoplanin glycopeptide ERGTKPPLEELSGK
T2 construct: also called PDPN glycopeptide; Tn antigen derived from podoplanin
T2 peptide: ERGT(GalNAc)KPPLEELSGK
The test is described as follows: BLI (Octet), peptide on biosensor, apparent affinity (Example 3). The procedure:
Antibody affinity and epitope binning of monoclonal antibodies can be assessed against specific antigens using BLI. […] The affinity is determined by fitting the binding curve to a specific model: a 1:1 monovalent model or a 2:1 bivalent model. The error (>95% confidence) is calculated by how close the generated curve matches the model.
To characterize the cross-reactivity between mAb237 the anti-glyco-LAMP1 antibodies 3C7, 13C3, and 13G2, the affinities of mAb237, 3C7, 13C3, and 13G2 against the glycosylated LAMP1 peptide, the unglycosylated LAMP1 peptide, and the podoplanin glycopeptide were determined by Octet. Table 8 summarizes the dissociation constants (Kd) for mAb237, 3C7, 13C3, and 13G2 against the glycosylated LAMP1 peptide, the unglycosylated LAMP1 peptide, and the podoplanin glycopeptide. No cross reactivity was observed despite the sequence similarities observed between mAb237 and 3C7, 13C3, and 13G2.
On the technique in general: BLI is a label-free optical method that tracks binding on a fibre tip over time.

Test [3] addresses T1, Tn-glycosylated LAMP1 on COSMC …. In words: cell-based or functional assay. The source holds these as a separate data set.
Test [4] addresses T3, LAMP1 without Tn glycans on wild type cells (human, UniProt P11279 29-417, No Tn antigen (the wild type cells are Tn-negative)).
T3 sequence (looked up): T1 sequence (looked up)
The test is described as follows: cell-based or functional assay.

The target in test [5] is T1, Tn-glycosylated LAMP1 on COSMC …. The test is described as follows: cell-based or functional assay. The source holds these as a separate data set.
For test [6], the target named is T3, LAMP1 without Tn glycans on wild type …. In words: cell-based or functional assay. The source holds these as a separate data set.
For test [7], the target named is T4, LAMP1-Tn peptide Biotin-CEQDRPSPTTAPPAPPSPSP (human, N-terminal biotin; O-linked GalNAc on the serine at position 7 and the threonines at positions 9 and 10).
T4 construct: Synthetic 20-mer glycopeptide made by FMOC synthesis; also called LAMP1 glycopeptide; glycosylated LAMP1 peptide
T4 peptide: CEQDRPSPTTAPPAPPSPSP
In words: ELISA on plate-coated LAMP1-GP. As for the experimental part:
96-well Corning high bind ELISA microplates plates were coated with LAMP1 peptides titrated in 0.2 M bicarbonate buffer, pH 9.4 overnight at 4° C. in concentrations ranging from 0.08 μg/ml to 10 μg/ml. BSA was used as a control/measure of background. The plates were then blocked with SuperBlock™ (Thermo Fisher) for 1 hr at room temperature. After plate washing, the humanized variants of 13C3 were incubated on the ELISA plate for 1 hour. All tested variants were expressed and purified using conventional methods. Briefly, Expi-293 cells were transiently transfected with heavy and light chain constructs, antibodies were secreted into supernatant and purified using Protein A agarose beads. The plates were then washed, and then incubated with secondary antibody (1/3000 Goat Anti-mouse IgG (H+L) HRP (Abcam 62-6520)) for 1 hour. The plate was then washed and color was developed with 1-Step™ Ultra TMB (Thermo Fisher) for 2 minutes. Color development was then stopped with 2 N Sulfuric Acid. Absorbance at 450 nm was then measured.
On the technique in general: An ELISA detects its analyte on a solid surface through an enzyme-linked reagent.

Test [8] addresses T4, LAMP1-Tn peptide …. In words: BLI (Octet), LAMP1-GP on biosensor.

B1: 13G2-CART (other)
chain: DVVMTQIPLSLCVSLGDQASISCRSSQSLVHNNGNTYLHWYLQKPGQSPKLLINKVSKRFTGVPDRFSGSGSGTDFTLKISRVEAEDLGVYFCSQSTHVPRTFGGGTKLEIKGGGGSGGGGSGGGGSEVRLEESGGGLVQPGGSMKLSCVASGFTFSDAWMDWVRQSPERGLEWVAELRSKTFNHATYYAESVRGRFTISRDDSKSTVYLQMNSLRAEDTGIYYCSPNWDEGFAYWGQGTLVTVSATTTPAPRPPTPAPTIASQPLSLRPEACRPAAGGAVHTRGLDFACDFWVLVVVGGVLACYSLLVTVAFIIFWVRSKRSRLLHSDYMNMTPRRPGPTRKHYQPYAPPRDFAAYRSRVKFSRSADAPAYQQGQNQLYNELNLGRREEYDVLDKRRGRDPEMGGKPRRKNPQEGLYNELQKDKMAEAYSEIGMKGERRRGKGHDGLYQGLSTATKDTYDALHMQALPPR
B1: the “Time to kill 50% of cells (KT50), HaCAT COSMC-KO target cells, T cell ratio 10:1” value in test [1] amounted to 8.75 h.

B2: mAb237 (antibody, V domains shown)
VH: QVQLQQSGGGLVQPGGSMKIFCAASGFTFSDAWMDWVRQSPEKGLEWVAEIRNKANNHETYYAESVKGRFTITRDDSKSRMSLQMNSLRAEDTGIYYCSGGKVRNAYWGQGTTVTVSS
VL: DIQLTQTPLSLPVSLGDQASISCRSSQSLVHSVGNTYLHWYLQKPGQSPKLLIYKVSNRFSGVPDRFSGSGSGTDFTLKISSVEAEDLGVYFCSQSTHVPTFGGGTKLEIK
notes: Recombinant mouse antibody bought from Creative Biolabs (Brooks et al., 2010), specific for the podoplanin Tn glycopeptide; also called wild type mAb237
With B2, the Kd in test [2] is 1.53 nM.

B3: 13C3-CART (other)
chain: DVVMTQTPLSLPVSLGDQASISCRSSQSLVHSNGNTYLHWYLQKPGQSPKLLINKVSNRFSGVPDRFSGSGSGTDFTLKISRVEAEDLGVYFCSQSTHVPRTFGGGTKLEIKGGGGSGGGGSGGGGSEVKLEDSGGGLVQPGGSMKLSCAASGFTFSDAWMDWVRHSPEKGLEWVAELRSKAFNHATYYAESVKGRFTISRDDSKSTVYLQMNSLRAEDTGIYYCTPNWDEGFAYWGQGTLVTVSATTTPAPRPPTPAPTIASQPLSLRPEACRPAAGGAVHTRGLDFACDFWVLVVVGGVLACYSLLVTVAFIIFWVRSKRSRLLHSDYMNMTPRRPGPTRKHYQPYAPPRDFAAYRSRVKFSRSADAPAYQQGQNQLYNELNLGRREEYDVLDKRRGRDPEMGGKPRRKNPQEGLYNELQKDKMAEAYSEIGMKGERRRGKGHDGLYQGLSTATKDTYDALHMQALPPR
For B3, the “Time to kill 50% of cells (KT50), HaCAT COSMC-KO target cells, T cell ratio 10:1” value in test [1] worked out at 7.3 h.

B4: 13G2-ADC (GGFG-DX8951) (other)
VH: EVRLEESGGGLVQPGGSMKLSCVASGFTFSDAWMDWVRQSPERGLEWVAELRSKTFNHATYYAESVRGRFTISRDDSKSTVYLQMNSLRAEDTGIYYCSPNWDEGFAYWGQGTLVTVSA
VL: DVVMTQIPLSLCVSLGDQASISCRSSQSLVHNNGNTYLHWYLQKPGQSPKLLINKVSKRFTGVPDRFSGSGSGTDFTLKISRVEAEDLGVYFCSQSTHVPRTFGGGTKLEIK
modifications: MC-GGFG-DX8951 covalently attached to the antibody (maleimide); site not stated; DAR ~5.6
Turning to B4, the “IC50 for cell death, T47D COSMC-KO cells” value in test [3] turned out to be 5.6 nM. Also, the “IC50 for cell death, T47D cells” value in test [4] came out at 4.4 nM.

B5: GO-13C3 mouse (vc-PAB-MMAE ADC) (other)
VH: B4 VH with R3K, E6D, V23A, Q39H, R43K, T55A, R67K, S99T
VL: B4 VL with I7T, C12P, N32S, K58N, T61S
modifications: Cleavable MMAE with maleimide (vc-PAB-MMAE) covalently linked; site not stated; DAR ~4
In the case of B5, the “IC50 for cell death, T47D COSMC-KO cells” value in test [5] is 4.5 nM. The “IC50 for cell death, T47D cells” value in test [6] is over 100000 nM.

B6: 3C7-ADC (GGFG-DX8951) (other)
VH: EVKLEESGGGLVQPGGSMKVSCGASGFTFSDAWMDWVRQSPEKGLEWVAEMRSKAFNHAIYYAESVKGRFTISRDDSKSRVYLQMNLLRPEDTGIYYCTPNWDEGFAYWGQGTLVTVSA
VL: B4 VL with V3M, M4L, I7T, C12P, N32S, K58N, T61F
modifications: MC-GGFG-DX8951 covalently attached to the antibody (maleimide); site not stated; the DAR could not be calculated
On to B6, for which the “IC50 for cell death, T47D COSMC-KO cells” value in test [3] came to 4.5 nM. Moreover, the “IC50 for cell death, T47D cells” value in test [4] is 504 nM.

B7: 13C3-ADC (GGFG-DX8951) (other)
VH: B4 VH with R3K, E6D, V23A, Q39H, R43K, T55A, R67K, S99T
VL: B4 VL with I7T, C12P, N32S, K58N, T61S
modifications: MC-GGFG-DX8951 covalently attached to the antibody (maleimide); site not stated; DAR ~3.1
For the molecule B7, the “IC50 for cell death, T47D COSMC-KO cells” value in test [3] was 5.6 nM. Moreover, the “IC50 for cell death, T47D cells” value in test [4] was 205 nM.

B8: GO-13C3-Human-v1 (vc-PAB-MMAE ADC) (other)
VH: EVQLVESGGGLVQPGGSLRLSCAASGFTFSDAWMDWVRHAPGKGLEWVAELRSKAFNHATYYAESVKGRFTISRDDSKNSVYLQMNSLKTEDTAVYYCTPNWDEGFAYWGQGTLVTVSS
VL: DVVMTQSPLSLPVTLGQPASISCRSSQSLVHSNGNTYLHWYQQRPGQSPRLLINKVSNRFSGVPDRFSGSGSGTDFTLKISRVEAEDVGVYFCSQSTHVPRTFGGGTKVEIK
modifications: Cleavable MMAE with maleimide (vc-PAB-MMAE) covalently linked; site not stated; DAR ~4
With B8, the “IC50 for cell death, T47D COSMC-KO cells” value in test [5] worked out at 5.03 nM. The “IC50 for cell death, T47D cells” value in test [6] was over 100000 nM.

B9: 13C3-HV-23-B/13C3 KV2-A (antibody, V domains shown)
VH: B8 VH with V5L, H39Q, A49S, S80T, V81L, K89R, T90A
VL: B8 VL
notes: Humanized 13C3; also called HV23B/KV2A; humanized 13C3 candidate 3
As to B9, the EC50 (as a rule, the concentration giving half of the maximal effect) in test [7] amounted to 0.0191 µg/mL. In test [8], this molecule yielded a Kd of 0.85 nM.

B10: GO-13C3-Human-v2 (vc-PAB-MMAE ADC) (other)
VH: B8 VH with V5L, H39Q, A49S, S80T, V81L, K89R, T90A
VL: B8 VL
modifications: Cleavable MMAE with maleimide (vc-PAB-MMAE) covalently linked; site not stated; DAR ~4
In the case of B10, the “IC50 for cell death, T47D COSMC-KO cells” value in test [5] stood at 5.4 nM. Besides, the “IC50 for cell death, T47D cells” value in test [6] is over 100000 nM.

B11: 13C3-HV-72-A/13C3 KV2-A (antibody, V domains shown)
VH: B8 VH
VL: B8 VL
notes: Humanized 13C3; also called HV-72A/KV2A; humanized 13C3 candidate 2
For the molecule B11, in test [7], the concentration for a half-maximal effect (EC50) was determined as 0.0262 µg/mL. In addition, the Kd in test [8] stood at 3.1 nM.

B12: 13C3-HV-72-B/13C3 KV2-A (antibody, V domains shown)
VH: B8 VH with H39Q, A49G, V81L
VL: B8 VL
notes: Humanized 13C3; also called humanized 13C3 candidate 4
As to B12, the midpoint of the response in test [7], the EC50, lay at 0.0257 µg/mL. Moreover, in test [8], the Kd is 8.2 nM.

B13: 13C3-HV-23-C/13C3 KV2-A (antibody, V domains shown)
VH: B8 VH with V5L, H39Q, A49S, L51I, K54S, S80T, V81L, K89R, T90A
VL: B8 VL
notes: Humanized 13C3; also called humanized 13C3 candidate 5
Turning to B13, it took 0.0155 µg/mL to reach a half-maximal effect in test [7] (EC50). Besides, the Kd in test [8] was determined as 23.5 nM.
